Reference: the supplement of paper PMC10724198
± gives the standard deviation of the averaged measurements.

Tested on: Saccharomyces cerevisiae
Experiment: protein stability index of tFT-peptide fusion (C-terminal peptide) (PSI (0-1 scale)); higher = more stable (slower turnover)
Conditions: temperature: 30 C
Method: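 MPS profiling in S. cerevisiae of the yeast C-terminome library: the last 12 aa of each annotated ORF are fused to the C-terminus of a sfGFP-mCherry timer, after a GGGS linker. Cells are FACS-sorted into 8 mCherry/sfGFP bins and deep-sequenced. PSI runs from 0 (unstable) to 1 (stable); wild type and das1Δ backgrounds, two technical replicates each.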

[1] = genetic background: das1 deletion

Sequence | protein stability index [1] | protein stability index (genetic background: wild type)
DSEDDEDESDDE [SUI2 C-terminal 12 aa] | 0.689 ± 0.036 | 0.717 ± 0.094
EVENDRQIHRML [IDI1 C-terminal 12 aa] | 0.6924 ± 0.0013 | 0.682 ± 0.01
ILNCVGSAKISG [YGR291C C-terminal 12 aa] | 0.668 ± 0.025 | 0.654 ± 0.02
QIDKLLTVLDSL [RTP1 C-terminal 12 aa] | 0.717 ± 0.023 | 0.691 ± 0.038
AVHSFNTPAVQS [COX1 C-terminal 12 aa] | 0.6863 ± 0.0034 | 0.676 ± 0.019
ATEITPLLNIAE [VLD1 C-terminal 12 aa] | 0.674 ± 0.018 | 0.773 ± 0.033
KDSKNGASTLTS [YSW1 C-terminal 12 aa] | 0.691 ± 0.041 | 0.672 ± 0.018
TTTGDKKSEEKQ [TCB2 C-terminal 12 aa] | 0.685 ± 0.027 | 0.69 ± 0.032
VTAGKAKFVLYN [SUN4 C-terminal 12 aa] | 0.665 ± 0.0087 | 0.445 ± 0.012
LLEAFLRKEQKV [YGR174W-A C-terminal 12 aa] | 0.596 ± 0.012 | 0.619 ± 0.019
AAQLSSILPKYM [YLR140W C-terminal 12 aa] | 0.674 ± 0.056 | 0.566 ± 0.063
NDITLAVYTSAQ [EGO2 C-terminal 12 aa] | 0.6895 ± 0.00082 | 0.651 ± 0.021
IDNPEACEMCSG [RNR1 C-terminal 12 aa] | 0.702 ± 0.022 | 0.694 ± 0.027
HKSLKLAKKDKK [AGE1 C-terminal 12 aa] | 0.6837 ± 0.0037 | 0.738 ± 0.13
FVAEAYLDEFVY [ARC19 C-terminal 12 aa] | 0.71 ± 0.03 | 0.662 ± 0.02
CDVKSSIIVGIL [YLR358C C-terminal 12 aa] | 0.638 ± 0.02 | 0.655 ± 0.059
RLVRNVELSKEK [MTD1 C-terminal 12 aa] | 0.708 ± 0.028 | 0.718 ± 0.062
TARPFPAPNIAA [YLR349W C-terminal 12 aa] | 0.728 ± 0.029 | 0.67 ± 0.016
RQTKAFISKFMT [DBR1 C-terminal 12 aa] | 0.7208 ± 0.0027 | 0.682 ± 0.05
LLLGTVSATNAI [YPL062W C-terminal 12 aa] | 0.6878 ± 0.004 | 0.706 ± 0.038
TIPAAKRTKPSA [LYS20 C-terminal 12 aa] | 0.69801 ± 0.00025 | 0.703 ± 0.014

Sequence | protein stability index [1] | protein stability index (genetic background: wild type)
YIKEAQSACNDV [COS12 C-terminal 12 aa] | 0.692 ± 0.018 | 0.664 ± 0.03
KSTNCCLIYDST [KKQ8 C-terminal 12 aa] | 0.7052 ± 0.00093 | 0.675 ± 0.036
IIFGHDNLWTVR [ALG7 C-terminal 12 aa] | 0.742 ± 0.022 | 0.767 ± 0.041
DFSKFKDSRLYD [YND1 C-terminal 12 aa] | 0.688 ± 0.034 | 0.671 ± 0.01
AAVAKQKVSDSK [DHR2 C-terminal 12 aa] | 0.664 ± 0.024 | 0.654 ± 0.024
KSLWDYVKKNTE [TAF14 C-terminal 12 aa] | 0.689 ± 0.046 | 0.712 ± 0.019
DEEKQLSLSDMI [YOR186W C-terminal 12 aa] | 0.692 ± 0.03 | 0.672 ± 0.019
ITKQKALDYHYL [CBS2 C-terminal 12 aa] | 0.698 ± 0.0089 | 0.667 ± 0.016
MKDFSKNEQKEK [SEY1 C-terminal 12 aa] | 0.719 ± 0.037 | 0.72 ± 0.043
DEFCSQRSYTRF [MIN7 C-terminal 12 aa] | 0.716 ± 0.042 | 0.701 ± 0.032
LPAEILSNEPLK [YML119W C-terminal 12 aa] | 0.688 ± 0.01 | 0.692 ± 0.071
SGDIVAVIETLA [DUR12 C-terminal 12 aa] | 0.51 ± 0.033 | 0.571 ± 0.049
EKTVNFIKTFGV [GUT2 C-terminal 12 aa] | 0.6956 ± 0.0026 | 0.71 ± 0.035
VQNWKPKPFGVL [LAS1 C-terminal 12 aa] | 0.707 ± 0.015 | 0.737 ± 0.059
MQLARRIRGQFI [CSE4 C-terminal 12 aa] | 0.691 ± 0.0093 | 0.646 ± 0.02
SIHIDDFENENN [YGL036W C-terminal 12 aa] | 0.7059 ± 0.0061 | 0.675 ± 0.023
LKSQSLTTGWSL [MNS1 C-terminal 12 aa] | 0.7194 ± 0.0048 | 0.741 ± 0.058
NNNIANDYMDID [YML053C C-terminal 12 aa] | 0.7268 ± 0.005 | 0.815 ± 0.067
SSDRSAAEKRNT [TYR1 C-terminal 12 aa] | 0.699 ± 0.029 | 0.673 ± 0.039
VELYENQSHMQN [CDC9 C-terminal 12 aa] | 0.701 ± 0.01 | 0.678 ± 0.074
